The target of data set [1] is TRF (HTRF4.1, TRF1) partial ORF from N-terminal XhoI site to stop (Homo sapiens, UniProt P54274 SEQ:45-439). Put plainly: EMSA; reticulocyte lysate; no complex without TRF cDNA; text of Example 4 prints probe as (TTAGGG)2. To be noted: tags: His6 (pET28b, Novagen) N-terminal fusion; label: radiolabelled. The text has this:
Proof that the cDNAs encode TRF activity. One of the human cDNAs (HTRF4.1) was used to construct a fusion protein in which part of the TRF open reading frame from the N-terminal Xho I site to the natural termination codon at the Hind III site was inserted into the pET28b His6Tag expression vector from Novagen (Madison, Wis.). This new, chimeric open reading frame contained an initiator ATG codon with "Kozak rules" environment at its 5' end as well as an T7 RNA polymerase promoter sequence upstream. This construct was used for in vitro coupled transcription/translation (using a kit from Promega) resulting in synthetic protein (labelled with […]) with an apparent molecular weight (MW) of 60 kD. The in vitro synthesized protein was used in a gel-shift assay with a double stranded (TTAGGG)_2 repeat probe and shown to form a complex that migrates close to the HeLa TRF gel-shift complex.

The target of data set [2] is T1, TRF (MTRF12, full length) (Mus musculus, UniProt P70371 P70371:1-421).
T1 sequence: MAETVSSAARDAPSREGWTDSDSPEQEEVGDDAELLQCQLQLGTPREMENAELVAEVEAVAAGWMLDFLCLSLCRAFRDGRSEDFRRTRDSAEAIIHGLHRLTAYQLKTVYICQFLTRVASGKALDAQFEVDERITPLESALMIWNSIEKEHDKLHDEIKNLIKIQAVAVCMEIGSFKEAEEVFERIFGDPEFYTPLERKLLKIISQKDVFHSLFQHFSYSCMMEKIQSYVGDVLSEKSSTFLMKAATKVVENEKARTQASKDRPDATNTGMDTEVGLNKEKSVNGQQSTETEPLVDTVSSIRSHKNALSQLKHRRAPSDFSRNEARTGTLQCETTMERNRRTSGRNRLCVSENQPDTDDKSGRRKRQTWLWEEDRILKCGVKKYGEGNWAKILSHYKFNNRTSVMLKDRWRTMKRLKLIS
Put plainly: EMSA; reticulocyte lysate; complex co-migrates with J558 mouse TRF. To be noted: label: radiolabelled. The text has this:
The mouse cDNA (MTRF12) contained its own initiator codon and was transcribed and translated without further modification using the T3 promoter in its pBluescript vector. Similar to the human cDNA, a ~60 kD protein was synthesized that bound TTAGGG repeats but not TYGGGG or TTAGGC repeats (FIG. 6).

Data set [3] addresses T2, TRF purified from HeLa nuclear extract (Homo sapiens, UniProt P54274 SEQ:1-439).
T2 chain: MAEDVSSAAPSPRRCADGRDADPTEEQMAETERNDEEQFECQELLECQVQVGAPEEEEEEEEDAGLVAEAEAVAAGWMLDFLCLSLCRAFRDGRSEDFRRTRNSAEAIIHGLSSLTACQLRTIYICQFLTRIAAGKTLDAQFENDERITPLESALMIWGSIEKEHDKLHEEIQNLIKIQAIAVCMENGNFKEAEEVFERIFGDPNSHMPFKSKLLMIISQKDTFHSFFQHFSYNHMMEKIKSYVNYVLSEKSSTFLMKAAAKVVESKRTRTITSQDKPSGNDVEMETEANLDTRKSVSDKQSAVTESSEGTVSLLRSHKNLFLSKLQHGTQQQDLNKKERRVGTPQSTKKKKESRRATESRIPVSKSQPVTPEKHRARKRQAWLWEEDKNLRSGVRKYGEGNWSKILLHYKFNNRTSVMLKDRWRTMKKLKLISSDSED
Briefly: EMSA; column fractions in 100 mM KCl, 20 mM HEPES, 3 mM MgCl2, 20% glycerol, 0.1% NP-40; binding lost when highly purified, rescued by casein. To be noted: label: radiolabelled. The procedure:
TRF was isolated from a total of 9.2×10^11 HeLa Cells, equivalent to 940 liters of culture (in Joklik's Media, supplemented with bovine calf serum, 2 mM L-glutamine, 0.1 mM non-essential amino acids, and penicillin/streptomycin). A nuclear extract containing 4 grams of protein and about 650 pmol of TRF (1 pmol TRF is defined as the amount of protein required to complex 1 pmol of labelled probe), as determined by quantitation using a PhosphoImager, was obtained from the cells and the soluble fraction was then purified over a series of ion exchange and affinity columns, as noted above. For each column, the sample was loaded in buffer containing 100 mM KCl and the flow-through was reloaded. The columns were developed in buffer with increasing potassium chloride salt concentration, with a final stripping of the column with 1M salt. All fractions were dialyzed to 100 mM KCl, 20 mM HEPES, 3 mM MgCl_2, 20% glycerol, and 0.1% NP-40 (nonidet-P40). Activity was determined by gel shift assay using a probe of 145 bp fragment containing (TTAGGG)_2 having the following sequence (SEQ D NO:21): […]

B1: (TTAGGG)12 restriction fragment probe (dsDNA)
DNA 1: TTAGGGTTAGGGTTAGGGTTAGGGTTAGGGTTAGGGTTAGGGTTAGGGTTAGGGTTAGGGTTAGGGTTAGGG
DNA 2: CCCTAACCCTAACCCTAACCCTAACCCTAACCCTAACCCTAACCCTAACCCTAACCCTAACCCTAACCCTAA
Take B1: the binding result in data set [1] and in data set [2] was “binds” each time.

B2: 145 bp TTAGGG repeat gel-shift probe (dsDNA)
DNA 1: GTACCCGGGGATCGTGACTCTAGAGGGGCCCTAACCCTAACCCTAACCCTAACCCTAACCCTAACCCTAACCCTAACCCTAACCCTAACCCTAACCCTAACCCTAACCCGGGTCGAATTCGATCTCTAGAGTCGACCTGCAGGCATGC
DNA 2: GCATGCCTGCAGGTCGACTCTAGAGATCGAATTCGACCCGGGTTAGGGTTAGGGTTAGGGTTAGGGTTAGGGTTAGGGTTAGGGTTAGGGTTAGGGTTAGGGTTAGGGTTAGGGTTAGGGCCCCTCTAGAGTCACGATCCCCGGGTAC
As for B2, the binding result in data set [3] is on record as “binds”.
